From patent US20080279856A1, “Inhibition of Bradykinin Release” (Novo Nordisk Pharmaceuticals, Inc., priority 1999, published 2008)

What was measured:
[1] = tested on: EC monolayers (HUVEC or BAEC); experiment: Albumin clearance (Evans blue dye-conjugated albumin) across EC monolayers after HBP stimulation; assay type: cell-based, human, bovine; details: HBP 75 μg/ml; over a 60 min period
Protocol: Human umbilical vein endothelial cells (HUVEC) are isolated from fresh umbilical cords as described by Jaffe et al., 1973, J. Clin. Invest. 52:2745-2756), and bovine aorta endothelial cells (BAEC) are isolated according to the method of Booyse et al., 1975, Thromb. Diath. Haemmorrh. 24:825-839) with a few modifications. Briefly, the lumen of the umbilical vein or bovine aorta is incubated with a 0.25% collagenase solution for 10 min, and detached endothelial cells washed out with PBS. Harvested cells are pelleted and resuspended in culture medium, seeded in tissue culture flasks and incubated under standard conditions. Medium is changed every 48 h until cultures have reached confluence (3-5 days). […]
Cultured EC are detached by brief (2 min) trypsin-EDTA treatment (0.25% trypsin/0.01% EDTA) and replated onto either 0.2 μm pore size Anopore inorganic membrane or 3.0 μm pore size polycarbonate filters (Tissue Culture inserts, 10 mm; NUNC, Roskilde, Denmark). […] The ECs are grown to confluent monolayers, as assessed by daily microscopic observation and measurement of the electrical resistance across the monolayer.
Evans blue dye-conjugated albumin (EBA) is used as a marker for macromolecular permeability of the EC monolayers. […] In experiments where albumin permeability is analyzed, the culture medium in the upper compartment is exchanged for medium containing EBA. […]

rat insulinoma cells = details: IL-1 induced; cited from earlier work
fecal peritonitis = details: HBP treatment; cited from earlier work
[2] = tested on: hamster cheek pouch microvasculature; experiment: Intravital microscopy of hamster cheek pouch microvessel permeability; assay type: in vivo, Syrian golden hamsters; details: topical HBP 75 μg/ml
Excerpt: In order to study the effect of PMN secretion products on microvessel permeability in vivo, intravital microscopy of the hamster cheek pouch microcirculation is applied. As previously described in detail (Raud & Lindbom, 1994, Immunology of the Microcirculation, Academic Press, 1994, chapter 7), the left cheek pouch of anaesthetized Syrian golden hamsters is everted and prepared for microscopic observation under continuous superfusion with a bicarbonate buffer maintaining physiological levels of temperature, pH and gas tensions. FITC-conjugated dextran (MW: 150.000) injected i.v. (250 mg/kg body weight) is used as plasma tracer to permit visualization of changes in vascular permeability to macromolecules. The microvasculature in the exposed cheek pouch is observed under low magnification in fluorescent light with a Leitz Orthoplan microscope and recorded on video. After control recordings, superfusion is stopped and 1 ml of medium containing CD18 cross-linking-evoked PMN secretion at 37° C. is topically applied to the cheek pouch. In parallel experiments, anti-CD18-treated PMN medium is not subjected to cross-linking is used.

[3] = 125I-BPTI binding to HBP, scintillation proximity assay; design: species or system bovine; details: competition with unlabeled BPTI; read-out: apparent IC50 of 125I-BPTI binding
Protocol: (§1) The relative affinities of HBP and the mutants are determined by performing competition studies with […] of unlabeled BPTI.

125I-BPTI = experiment: as above; design: species or system bovine
Protocol: as §1

[4] = 3H-LPS binding to HBP, scintillation proximity assay; details: saturation, SPA
Protocol: The affinity for lipopolysaccharide (3H-LPS) is measured by scintillation proximity assay technology (SPA) as described (Linde, V., Bjørn, S., Kastrup, J. S., and Flodgaard, H., 2000, Biotechniques 28:218-222). All samples are repeated in triplicates.

EC monolayers = experiment: F-actin distribution in EC (FITC-phalloidin staining); assay type: cell-based, human, bovine; details: HBP 75 μg/ml, 15 min
Protocol: For analysis of F-actin distribution in EC in response to stimulation with HBP, confluent EC monolayers grown on Biomatrix coated coverslips are incubated with HBP or vehicle alone at 37° C. for 15 min. The monolayers are washed twice in culture medium and fixed in 3.7% formaldehyde in PBS for 10 min at room temperature. EC are permeabilized with 0.2% Triton® X-100 in PBS (1 min at 4° C.), washed twice and stained for actin filaments with FITC-conjugated phalloidin for 20 min at 37° C. The endothelial cells are again washed three times in PBS and viewed in a laser scanning confocal microscope.

[5] = tested on: endothelial cells and fibroblasts; details: cited from earlier work

B1: HBP: Native human heparin-binding protein, mature form with the amino acid sequence SEQ ID NO:1 (protein, listed as Homo sapiens)
chain: IVGGRKARPRQFPFLASIQNQGRHFCGGALIHARFVMTAASCFQSQNPGVSTVVLGAYDLRRRERQSRQTFSISSMSENGYDPQQNLNDLMLLQLDREANLTSSVTILPLPLQNATVEAGTRCQVAGWGSQRSGGRLSRFPRFVNVTVTPEDQCRPNNVCTGVLTRRGGICNGDGGTPLVCEGLAHGVASFSLGPCGRGPDFFTRVALFRDWIDGVLNNPGPGPA
- net albumin clearance volume [1]: 20.4 ± 3.4 µL
- apoptosis (rat insulinoma cells): rescues rat insulinoma cells from IL-1 induced apoptosis
- survival (fecal peritonitis): rescue mice from an otherwise lethal injury
- time of maximum leakage response after challenge [2]: 7 to 10 min
- time to complete disappearance of leakage [2]: ≤ 30 min
- time to visible leaky spots of fluorescent tracer [2]: ≤ 2 min
- IC50 [3]: ~7 nM
- binding of BPTI (125I-BPTI): binds BPTI
- apparent Kd for 3H-LPS [4]: approximately 0.7 μg/mL
- F-actin content and distribution (EC monolayers): substantial changes in F-actin content and distribution
- cell contraction [5]: induce contraction
